Test results from the Human Domainome abundance scans (Beltran et al. 2025).
± gives the uncertainty stated by the source.

Assay: abundance fitness (aPCA) (normalised: wild type 0, dead -1); higher = more abundant; growth selection in yeast, the domain comes from the species named
Conditions: Homo sapiens

Substance	abundance fitness
NEDD4-like E3 ubiquitin-protein ligase WWP2 Y454S, O00308	-0.132 ± 0.043
NEDD4-like E3 ubiquitin-protein ligase WWP2 L446Q, O00308	-0.491 ± 0.058
NEDD4-like E3 ubiquitin-protein ligase WWP2 W450R, O00308	-0.735 ± 0.047
NEDD4-like E3 ubiquitin-protein ligase WWP2 H465W, O00308	-0.422 ± 0.042
NEDD4-like E3 ubiquitin-protein ligase WWP2 E443Q, O00308	-0.205 ± 0.076
NEDD4-like E3 ubiquitin-protein ligase WWP2 Q442S, O00308	0.008 ± 0.042
NEDD4-like E3 ubiquitin-protein ligase WWP2 R476T, O00308	-0.075 ± 0.049
NEDD4-like E3 ubiquitin-protein ligase WWP2 P448Y, O00308	-0.149 ± 0.056
NEDD4-like E3 ubiquitin-protein ligase WWP2 D492I, O00308	-0.212 ± 0.057
NEDD4-like E3 ubiquitin-protein ligase WWP2 P447L, O00308	-0.228 ± 0.048
NEDD4-like E3 ubiquitin-protein ligase WWP2 L446H, O00308	-0.641 ± 0.12
NEDD4-like E3 ubiquitin-protein ligase WWP2 D492A, O00308	-0.174 ± 0.054
NEDD4-like E3 ubiquitin-protein ligase WWP2 P448I, O00308	-0.13 ± 0.071
NEDD4-like E3 ubiquitin-protein ligase WWP2 A445Y, O00308	-0.002 ± 0.048
NEDD4-like E3 ubiquitin-protein ligase WWP2 V463I, O00308	-0.165 ± 0.072
NEDD4-like E3 ubiquitin-protein ligase WWP2 E451M, O00308	-0.122 ± 0.056
Transcription factor SOX-11 A111T, P35716	0.039 ± 0.048
NEDD4-like E3 ubiquitin-protein ligase WWP2 W450S, O00308	-0.676 ± 0.057
NEDD4-like E3 ubiquitin-protein ligase WWP2 Y461G, O00308	-0.863 ± 0.045
NEDD4-like E3 ubiquitin-protein ligase WWP2 G478W, O00308	-0.017 ± 0.032
NEDD4-like E3 ubiquitin-protein ligase WWP2 G478D, O00308	-0.036 ± 0.05
NEDD4-like E3 ubiquitin-protein ligase WWP2 G486W, O00308	-0.187 ± 0.049
NEDD4-like E3 ubiquitin-protein ligase WWP2 R460P, O00308	-0.032 ± 0.06

Substance	abundance fitness
NEDD4-like E3 ubiquitin-protein ligase WWP2 E451T, O00308	-0.229 ± 0.045
NEDD4-like E3 ubiquitin-protein ligase WWP2 I441V, O00308	-0.14 ± 0.048
NEDD4-like E3 ubiquitin-protein ligase WWP2 T470Q, O00308	-0.42 ± 0.056
NEDD4-like E3 ubiquitin-protein ligase WWP2 F462N, O00308	-0.945 ± 0.082
NEDD4-like E3 ubiquitin-protein ligase WWP2 P477Q, O00308	-0.394 ± 0.1
NEDD4-like E3 ubiquitin-protein ligase WWP2 A445V, O00308	-0.001 ± 0.06
NEDD4-like E3 ubiquitin-protein ligase WWP2 R468H, O00308	-0.015 ± 0.08
NEDD4-like E3 ubiquitin-protein ligase WWP2 E443W, O00308	-0.185 ± 0.039
NEDD4-like E3 ubiquitin-protein ligase WWP2 W450V, O00308	-0.175 ± 0.033
NEDD4-like E3 ubiquitin-protein ligase WWP2 G458A, O00308	-0.202 ± 0.059
NEDD4-like E3 ubiquitin-protein ligase WWP2 R468Q, O00308	-0.111 ± 0.066
NEDD4-like E3 ubiquitin-protein ligase WWP2 S487I, O00308	-0.038 ± 0.074
NEDD4-like E3 ubiquitin-protein ligase WWP2 Q485E, O00308	-0.034 ± 0.046
NEDD4-like E3 ubiquitin-protein ligase WWP2 T483F, O00308	-0.377 ± 0.072
NEDD4-like E3 ubiquitin-protein ligase WWP2 H465Q, O00308	-0.332 ± 0.042
NEDD4-like E3 ubiquitin-protein ligase WWP2 T483G, O00308	-0.01 ± 0.032
NEDD4-like E3 ubiquitin-protein ligase WWP2 P477D, O00308	-0.009 ± 0.059
NEDD4-like E3 ubiquitin-protein ligase WWP2 Q442H, O00308	-0.108 ± 0.086
NEDD4-like E3 ubiquitin-protein ligase WWP2 G482L, O00308	-0.086 ± 0.044
NEDD4-like E3 ubiquitin-protein ligase WWP2 N466F, O00308	-0.145 ± 0.071
NEDD4-like E3 ubiquitin-protein ligase WWP2 P475K, O00308	-1.24 ± 0.27
NEDD4-like E3 ubiquitin-protein ligase WWP2 S481L, O00308	-0.081 ± 0.053
NEDD4-like E3 ubiquitin-protein ligase WWP2 L446M, O00308	-0.05 ± 0.03

Substance	abundance fitness
NEDD4-like E3 ubiquitin-protein ligase WWP2 G489E, O00308	0.04 ± 0.049
NEDD4-like E3 ubiquitin-protein ligase WWP2 M440Q, O00308	0.206 ± 0.11
NEDD4-like E3 ubiquitin-protein ligase WWP2 Y454V, O00308	-0.047 ± 0.048
NEDD4-like E3 ubiquitin-protein ligase WWP2 Q442V, O00308	0.093 ± 0.042
Heterogeneous nuclear ribonucleoprotein U-like protein 2 A30M, Q1KMD3	0.067 ± 0.084
NEDD4-like E3 ubiquitin-protein ligase WWP2 I441Q, O00308	-0.035 ± 0.068
Transcription factor SOX-11 D92T, P35716	-0.223 ± 0.079
NEDD4-like E3 ubiquitin-protein ligase WWP2 A445P, O00308	-0.14 ± 0.07
Heterogeneous nuclear ribonucleoprotein U-like protein 2 D21S, Q1KMD3	-0.165 ± 0.066
NEDD4-like E3 ubiquitin-protein ligase WWP2 R493Q, O00308	0.132 ± 0.11
NEDD4-like E3 ubiquitin-protein ligase WWP2 Y461I, O00308	-0.509 ± 0.086
NEDD4-like E3 ubiquitin-protein ligase WWP2 E480N, O00308	-0.126 ± 0.068
NEDD4-like E3 ubiquitin-protein ligase WWP2 P447S, O00308	-0.332 ± 0.046
NEDD4-like E3 ubiquitin-protein ligase WWP2 F472W, O00308	-0.129 ± 0.05
NEDD4-like E3 ubiquitin-protein ligase WWP2 R460V, O00308	-0.137 ± 0.044
NEDD4-like E3 ubiquitin-protein ligase WWP2 R468M, O00308	-0.11 ± 0.033
NEDD4-like E3 ubiquitin-protein ligase WWP2 M440L, O00308	-0.065 ± 0.1
NEDD4-like E3 ubiquitin-protein ligase WWP2 R476D, O00308	-0.297 ± 0.047
NEDD4-like E3 ubiquitin-protein ligase WWP2 V459S, O00308	-0.097 ± 0.045
NEDD4-like E3 ubiquitin-protein ligase WWP2 S487T, O00308	0.058 ± 0.059
Transcription factor SOX-11 R100E, P35716	0.218 ± 0.12
NEDD4-like E3 ubiquitin-protein ligase WWP2 G478E, O00308	-0.036 ± 0.063
NEDD4-like E3 ubiquitin-protein ligase WWP2 W450H, O00308	-0.464 ± 0.085

Substance	abundance fitness
NEDD4-like E3 ubiquitin-protein ligase WWP2 R493K, O00308	-0.022 ± 0.089
NEDD4-like E3 ubiquitin-protein ligase WWP2 S456F, O00308	-0.24 ± 0.063
NEDD4-like E3 ubiquitin-protein ligase WWP2 E480Y, O00308	0.036 ± 0.065
NEDD4-like E3 ubiquitin-protein ligase WWP2 T455V, O00308	-0.678 ± 0.05
NEDD4-like E3 ubiquitin-protein ligase WWP2 M440K, O00308	0.4 ± 0.12
NEDD4-like E3 ubiquitin-protein ligase WWP2 K453T, O00308	-0.128 ± 0.056
NEDD4-like E3 ubiquitin-protein ligase WWP2 V459A, O00308	-0.107 ± 0.051
NEDD4-like E3 ubiquitin-protein ligase WWP2 K484I, O00308	-0.157 ± 0.064
NEDD4-like E3 ubiquitin-protein ligase WWP2 G489H, O00308	-0.155 ± 0.078
NEDD4-like E3 ubiquitin-protein ligase WWP2 E443M, O00308	-0.14 ± 0.055
NEDD4-like E3 ubiquitin-protein ligase WWP2 G449A, O00308	-0.269 ± 0.049
NEDD4-like E3 ubiquitin-protein ligase WWP2 P475T, O00308	-1.36 ± 0.2
NEDD4-like E3 ubiquitin-protein ligase WWP2 F479W, O00308	-0.103 ± 0.058
NEDD4-like E3 ubiquitin-protein ligase WWP2 Y461L, O00308	-0.375 ± 0.048
NEDD4-like E3 ubiquitin-protein ligase WWP2 G478H, O00308	-0.045 ± 0.069
NEDD4-like E3 ubiquitin-protein ligase WWP2 Y491H, O00308	0.026 ± 0.072
NEDD4-like E3 ubiquitin-protein ligase WWP2 F472I, O00308	-0.495 ± 0.082
NEDD4-like E3 ubiquitin-protein ligase WWP2 G489S, O00308	0.039 ± 0.05
NEDD4-like E3 ubiquitin-protein ligase WWP2 Q442D, O00308	0.079 ± 0.066
NEDD4-like E3 ubiquitin-protein ligase WWP2 L446W, O00308	-0.435 ± 0.065
